In publication PMC4866770 (PLoS ONE, 2016):

Target: amyloid precursor protein (APP) (human (endogenous in HEK293), UniProt P05067 18-770)
Experiment: cell-based or functional assay

Chain of amyloid precursor protein (APP) (P05067 18-770): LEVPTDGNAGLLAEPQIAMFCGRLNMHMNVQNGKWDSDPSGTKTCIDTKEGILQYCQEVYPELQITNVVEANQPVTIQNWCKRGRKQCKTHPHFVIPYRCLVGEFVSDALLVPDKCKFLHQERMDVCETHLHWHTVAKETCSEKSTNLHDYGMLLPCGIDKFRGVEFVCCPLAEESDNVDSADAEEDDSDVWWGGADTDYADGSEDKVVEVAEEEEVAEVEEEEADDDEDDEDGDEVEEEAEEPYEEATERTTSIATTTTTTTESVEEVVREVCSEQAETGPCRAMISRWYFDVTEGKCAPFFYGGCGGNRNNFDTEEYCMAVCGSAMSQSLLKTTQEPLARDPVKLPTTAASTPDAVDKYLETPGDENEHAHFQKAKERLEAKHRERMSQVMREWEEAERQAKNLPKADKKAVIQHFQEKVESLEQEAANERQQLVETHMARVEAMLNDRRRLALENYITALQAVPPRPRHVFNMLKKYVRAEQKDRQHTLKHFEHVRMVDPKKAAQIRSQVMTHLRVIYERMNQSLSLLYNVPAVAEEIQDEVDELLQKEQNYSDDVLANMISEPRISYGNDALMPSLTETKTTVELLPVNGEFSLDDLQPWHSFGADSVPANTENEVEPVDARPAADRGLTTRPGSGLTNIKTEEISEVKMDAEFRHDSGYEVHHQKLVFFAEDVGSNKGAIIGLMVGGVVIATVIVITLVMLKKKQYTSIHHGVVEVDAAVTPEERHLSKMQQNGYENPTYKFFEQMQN

B1: FLAG-Fe65 (natural protein, human, UniProt O00213-2 1-708, looked up)
chain: MSVPSSLSQSAINANSHGGPALSLPLPLHAAHNQLLNAKLQATAVGPKDLRSAMGEGGGPEPGPANAKWLKEGQNQLRRAATAHRDQNRNVTLTLAEEASQEPEMAPLGPKGLIHLYSELELSAHNAANRGLRGPGLIISTQEQGPDEGEEKAAGEAEEEEEDDDDEEEEEDLSSPPGLPEPLESVEAPPRPQALTDGPREHSKSASLLFGMRNSAASDEDSSWATLSQGSPSYGSPEDTDSFWNPNAFETDSDLPAGWMRVQDTSGTYYWHIPTGTTQWEPPGRASPSQGSSPQEESQLTWTGFAHGEGFEDGEFWKDEPSDEAPMELGLKEPEEGTLTFPAQSLSPEPLPQEEEKLPPRNTNPGIKCFAVRSLGWVEMTEEELAPGRSSVAVNNCIRQLSYHKNNLHDPMSGGWGEGKDLLLQLEDETLKLVEPQSQALLHAQPIISIRVWGVGRDSGRDFAYVARDKLTQMLKCHVFRCEAPAKNIATSLHEICSKIMAERRNARCLVNGLSLDHSKLVDVPFQVEFPAPKNELVQKFQVYYLGNVPVAKPVGVDVINGALESVLSSSSREQWTPSHVSVAPATLTILHQQTEAVLGECRVRFLSFLAVGRDVHTFAFIMAAGPASFCCHMFWCEPNAASLSEAVQAACMLRYQKCLDARSQASTSCLPAPPAESVARRVGWTVRRGVQSLWGSLKPKRLGAHTP
Q: With B1 as the binder, how does the “GAL4-dependent firefly luciferase reporter in HEK293 with pMST-APP (full-length APP fused to the GAL4 DNA binding domain): increase of APP transcriptional activity” value read?
A: The value was about 14 fold.
